Measurements as given in patent US20140017242A1, “ANTI-BRADYKININ B2 RECEPTOR (BKB2R) MONOCLONAL ANTIBODY” (Diamedica, Inc., priority 2010, published 2014).
Where no end group is shown, it is not given here.

T1: human BKB2R-derived epitope peptide (SEQ ID NO:73), PEG-biotin (human, also: PEG-biotin, site not given here)
T1 construct: also called immunogenic human BKB2R peptide fragment
T1 peptide: KEYSDEGHNVTAC


Columns and labels:
ZDF fa/fa rats [1] = experiment: 21-day ZDF fa/fa study: serum total cholesterol and triglyceride; type: in vivo, rat; settings: 10 mg/kg p.o. 1×/daily, day 21
Description: (§1) Animals. Male ZDF fa/fa rats were obtained from CRL (Kingston, N.Y.). Upon arrival, rats were seven weeks of age. The rats were housed individually per cage in a room with a photo cycle of 12 hours of light and 12 hours of dark and an ambient temperature of 70-72° F. and fed on regular rodent diet and water ad libitum. At the age of eleven weeks, rats were divided into six groups (Table 5) of eight rats per group based on fasting blood glucose levels. A sub-group of four rats per group was maintained in parallel to the main groups and was dosed similarly for twenty-one days for a hyperinsulinemic-euglycemic clamp study. […]
(§2) An oral glucose tolerance test (OGTT) was performed on Day 0, 7, 14 and 21 for each group of the study. Plasma samples were collected at each time point during OGTT to also measure insulin levels. Body weight, food and water intake were measured twice a week. Blood pressure and heart rates were monitored on Day 0, 7, 14 and 21 using a non-invasive tail cuff method (with five readings per rat taken and then averaged). Fasting serum samples were collected on Day 0, 7, 14 and 21 before OGTT for determination of triglyceride and total cholesterol level. Urine samples were collected on Day 7 and 14 for the determination of glycosuria. Glycated (Glycosylated) hemoglobin (HbA1c) was measured at the end of the study. Assay kits for these studies were as presented in Table 6, and were used according to the suppliers' instructions.
(§3) The mean change in fasting blood glucose (mg/dL), serum cholesterol (mg/dL) and systolic blood pressure (mm Hg) from baseline (Day 0) to Day 21 was compared between the high-dose (5F12G1, 0.2 mg/kg) and negative control (MG2b-57, 0.2 mg/kg) groups using an analysis of covariance to adjust for baseline levels. The mean HbA1c percentage in high-dose (5F12G1, 0.2 mg/kg) rats was compared to the mean HbA1c percentage for negative control (MG2b-57, 0.2 mg/kg) rats using an unequal-variance, independent two-sample t-test. A significance level of a=0.05 was used for all tests, and all analyses were conducted using SAS statistical software (vs. 9.2, Cary, N.C., U.S.A.).

ZDF fa/fa rats [2] = experiment: 21-day ZDF fa/fa study: oral glucose tolerance test (blood glucose, plasma insulin); type: in vivo, rat; settings: 10 mg/kg p.o. 1×/daily, day 21
Description: as §1, §2
OGTTs were performed on Day 0, 7, 14 and Day 21. Rats were fasted overnight and fasted blood glucose levels were measured (t=0 min), and then each rat was given a single 1.5 ml dose of glucose solution (2 g/kg body weight of D-(+)-glucose (G7528, Sigma) solubilized in deionized water) administered by oral gavage. […] At each time point of an OGGT approximately 50-60 μl of blood were collected and processed for plasma to measure insulin levels.
Plasma Collection. On days 0, 7, 14 and 21 during an OGTT test, blood samples were collected from the rats at each time point (0, 15, 30, 60, 90 and 120 minutes) into tubes containing lithium heparin (BD Biosciences, USA) by tail nip and kept on ice. The samples were then centrifuged at 4° C. for plasma separation and the plasma supernatants were transferred into 0.5 ml Eppendorf™ tubes by pipette and stored at −80° C. for the analysis of insulin levels.

ZDF fa/fa rats [3] = experiment: 21-day ZDF fa/fa study: fasting blood glucose; type: in vivo, rat; settings: 10 mg/kg p.o. 1×/daily, day 21; baseline 116.5+/−25.8
Description: as §1, §2
Fasting blood glucose levels were measured on Day 0, 7, 14 and 21.
as §3

ZDF fa/fa rats [4] = experiment: 21-day ZDF fa/fa study: glycated hemoglobin HbA1c; type: in vivo, rat; settings: 10 mg/kg p.o. 1×/daily, day 21
Description: as §1, §2
The mean change in fasting blood glucose (mg/dL), serum cholesterol (mg/dL) and systolic blood pressure (mm Hg) from baseline ([…]) and negative control (MG2b-57, 0.2 mg/kg) groups using an analysis of covariance to adjust for baseline levels. […] A significance level of a=0.05 was used for all tests, and all analyses were conducted using SAS statistical software (vs. 9.2, Cary, N.C., U.S.A.).

ZDF fa/fa rats [5] = experiment: 21-day ZDF fa/fa study: urinary glucose (glycosuria); type: in vivo, rat; settings: 10 mg/kg p.o. 1×/daily, day 14
[6] = biological target: T1, human BKB2R-derived epitope peptide …; experiment: BLI (Octet), peptide-PEG-biotin on streptavidin sensor, antibody 250 nM
Description: (§4) For the Octet study, antibodies were analyzed by kinetic titration of the antibodies. Antibodies were prepared in kinetic buffer (0.001 M phosphate buffered saline (NaCl 0.0138 M; KCl-0.00027 M); pH 7.4, at 25° C., 0.1 mg/ml BSA, 0.002% Tween and 0.005% Sodium Azide) followed by 1:2 serial dilutions.
(§5) Sensor Prep: Streptavidin biosensors (FortéBio Inc, Menlo Park, Calif.) were coated by incubation in a solution containing a peptide ([…]-PEG-biotin) (Biosyn, Lewisville, Tex.) at 50 μg/ml (300 seconds/1000 rpm shaking). 96 well half-volume plates were used for testing. 90 μl of sample was plated per well. Sensors were allowed to equilibrate to baseline in kinetic buffer (60 seconds/1000 rpm). The sensors were then placed into the various antibody dilutions to allow binding (association) to the probe for 500 seconds/1000 rpm, and measurements were taken. The sensors were then moved into kinetic buffer without antibody for dissociation (500 seconds/1000 rpm), and measurements were taken. Octet system software calculated kinetic constants for on rate/off rate/affinity.
(§6) For test humanized monoclonal antibodies, the highest concentration used was 500 nM followed by 1:2 dilutions. Each concentration was tested twice. The HC and LC represented the mouse original 5F12G1 VH and VL sequences.

[7] = biological target: T1, human BKB2R-derived epitope peptide …; experiment: BLI (Octet), peptide-PEG-biotin on streptavidin sensor, antibody 500 nM
Description: as §4, §5, §6

ZDF fa/fa rats [8] = experiment: Oral glucose tolerance test in ZDF fa/fa rats, humanized mAbs; type: in vivo, rat; settings: 0.2 mg/kg s.c.; order: H38/L39, H37/L38, L2/H2, H38/L38, H37/L37, H38/L38, H39/137 [sic], H39/L39, H37/L37, H39/L38, H37/L39, L1/H1
Text: This example describes evaluation of mouse mAb 5F12G1 and its twelve humanized clones in Zucker Diabetic fatty (ZDF fa/fa) rats for effects on insulin sensitivity in animals. Zucker Diabetic Rats develop symptoms similar to type 2 diabetes and are genetically resistant to insulin. […] Therefore, the Zucker rat is a good model to test the ability of the monoclonal antibody to increase insulin sensitivity, especially in an OGTT.
Male ZDF fa/fa rats were obtained from Charles River (Kingston, ON). Upon arrival, rats were ten weeks of age. The rats were housed individually per cage in a room with a photo cycle of 12 hours of light and 12 hours of dark and an ambient temperature of 70-72° F. and fed on regular rodent diet and water ad libitum. After seven days of acclimatization, rats were grouped into fourteen groups of three rats per group (Table 10).
Oral Glucose Tolerance Test. An oral glucose tolerance test (OGTT) was performed on overnight fasted (16 hours) rats. Rats received subcutaneously administered humanized mAbs, mouse mAb 5F12G1 (positive control) and PBS (vehicle control) at a dose of 0.2 mg/kg body weight, thirty minutes prior to glucose administration. D-Glucose was prepared in distilled water and administered orally at 2 g/kg body weight. Blood glucose levels were measured before administration of humanized mAbs, 5F12G1 or vehicle (t=−30 minutes) and just before glucose loading (0 minute), and at timepoints of 30, 60, 90 and 120 minutes, using Accu-chek™ glucose meter.

[9] = biological target: T2, human BKB2R-derived epitope peptide, SE ID NO:73 (Homo sapiens, UniProt P30411); experiment: ForteBio Octet binding kinetics to the BKB2R epitope peptide
T2 construct: purchased Biosyn, Lewisville, Tex
Description: Proteins corresponding to all combinations of humanized or chimeric (5F12G1 VH and VL on human IgG2 backbone) antibodies were tested for binding to the human BKB2R-derived epitope peptide, SE ID NO:73.
A ForteBio (Menlo Park, Calif., USA) Octet® platform was used to analyze the binding affinities and binding characteristics of the humanized monoclonal antibodies to the peptide epitope (SEQ ID NO:73) and compared to the original mouse monoclonal 5F12G1. This platform employed label-free technology for measuring biomolecular interactions by optical analysis of the interference pattern of white light reflected from two surfaces: a layer of immobilized protein on the biosensor tip, and an internal reference layer. Any change in the number of molecules bound to the biosensor tip caused a shift in the interference pattern that was measured in real-time. Binding specificity, and rates of association and dissociation were monitored.
as §4, §5
[…] […] Each concentration was tested twice. The HC and LC represented the mouse original 5F12G1 VH and VL sequences.

| Molecule | Kd [6] [nM] | Max Response [6] | koff [6] [s⁻¹] | kon [6] [M⁻¹ s⁻¹] | Kd [7] [nM] | Max Response [7] | koff [7] [s⁻¹] | kon [7] [M⁻¹ s⁻¹] | other results |
| --- | --- | --- | --- | --- | --- | --- | --- | --- | --- |
| N[C@@H](CC(=O)N1CCn2c(nnc2C(F)(F)F)C1)Cc1cc(F)c(F)cc1F [sitagliptin, reference compound] |  |  |  |  |  |  |  |  | serum cholesterol (ZDF fa/fa rats [1]): 170 ± 14 mg/dL; AUC of blood glucose during OGTT (ZDF fa/fa rats [2]): 53765.75 ± 2281.45 mg/dL (min); blood glucose level at 30 minutes of the OGTT (ZDF fa/fa rats [2]): 488 mg/dL; blood glucose level at the start of the OGTT (ZDF fa/fa rats [2]): 228 mg/dL; fasting insulin level (ZDF fa/fa rats [2]): 10 ± 3.5 ng/mL; insulin level at 15 minutes of the OGTT (ZDF fa/fa rats [2]): 15 ± 4 ng/mL; fasting blood glucose level (ZDF fa/fa rats [3]): 247 ± 14 mg/dL; percent glycosylated hemoglobin A1c (HbA1c) (ZDF fa/fa rats [4]): 8.8+/−0.4%; urine glucose level (ZDF fa/fa rats [5]): elevated urine glucose |
| humanized anti-BKB2R antibody L2/H1 (antibody, human IgG2, kappa, V domains shown) VH: EVQLVESGGGLVQPGGSLRLSCAASGFTFSDYWMSWVRQAPGKGLEWVAEIRLKSDNYATHYAESVKGRFTISRDNAKNSLYLQMNSLRAEDTAVYYCTRDYYAMEYWGQGTLVTVSS VL: DIVMTQSPLSLPVTPGEPASISCRSSQTIVHSNGKTYLEWYLQKPGQSPQLLIYKVSNRFSGVPDRFSGSGSGTEFTLKISRVEAEDVGVYYCFQASHVPYTFGQGTKLEIKR | 20.3 | 0.18 | 0.00438 | 216000 | 4.19 | 0.172 | 0.00507 | 1.21e+06 |  |
| H38/L39: humanized anti-BKB2R mAb, heavy chain H38 (SEQ ID NO:6), light chain L39 (SEQ ID NO:12) (antibody, V domains shown, Humanized H38 Heavy Chain Variable Region VH; Humanized L39 Light Chain Region VL) VH: EVQLLESGGGLVQPGGSLKLSCAVSGFTFSDYWMSWVRQAPGKGLEWVSEIRLKSDNYATHYADSVKGRFTISRDDSKNTLYLQMNSLRAEDTAVYYCTRDYYAMEYWGQGTLVTVSS VL: DVVMTQTPLSLSVTPGQPASISCKSSQTIVHSNGKTYLEWYLQKPGQSPQLLIYKVSNRFSGVPDRFSGSGSGTDFTLKISRVEAEDVGVYYCFQASHVPYTFGQGTKLEIK |  |  |  |  |  |  |  |  | order of effect on the decrease in AUC of blood glucose (ZDF fa/fa rats [8]): higher; kdis ([9]; Conc. 500 nM): 106 s⁻¹; kon ([9]; Conc. 500 nM): 1.14e+09 M⁻¹ s⁻¹; binding compared with the original mouse monoclonal antibody ([9]; Octet, epitope peptide): stronger binding (lower KD) |
| chimeric/humanized anti-BKB2R antibody L1/HC (antibody, human IgG2, V domains shown, not shown: human IgG2 constant region) VH: EVKLEESGGGLVQPGGSMKLSCVVSGFTFSDYWMSWVRHSPEMGLEWVAEIRLKSDNYATHYAESVKGRFTISRDDSKSRLYLQINSLRGEDTGIYYCTRDYYAMEYWGQGTSVTVSS VL: DIVMTQSPLSLPVTPGEPASISCRSSQTIVHSNGKTYLEWYLQKPGQSPQLLIYKVSNRFSGVPDRFSGSGSGTDFTLKISRVEAEDVGVYYCFQASHVPYTFGQGTKLEIKR | 3040 | 0.148 | 0.728 | 239000 | 3980 | 0.194 | 2.16 | 543000 |  |
| humanized anti-BKB2R antibody L2/H2 (antibody, human IgG2, kappa, V domains shown, also called H2/L2) VH: EVQLVESGGGLVQPGGSLRLSCVASGFTFSDYWMSWVRQAPGKGLEWVAEIRLKSDNYATHYAESVKGRFTISRDDAKNSLYLQMNSLRAEDTAVYYCTRDYYAMEYWGQGTLVTVSS VL: DIVMTQSPLSLPVTPGEPASISCRSSQTIVHSNGKTYLEWYLQKPGQSPQLLIYKVSNRFSGVPDRFSGSGSGTEFTLKISRVEAEDVGVYYCFQASHVPYTFGQGTKLEIKR | 20.4 | 0.171 | 0.0359 | 1.76e+06 | 22.5 | 0.171 | 0.0223 | 992000 |  |
| chimeric/humanized anti-BKB2R antibody L2/HC (antibody, human IgG2, V domains shown, not shown: human IgG2 constant region) VH: EVKLEESGGGLVQPGGSMKLSCVVSGFTFSDYWMSWVRHSPEMGLEWVAEIRLKSDNYATHYAESVKGRFTISRDDSKSRLYLQINSLRGEDTGIYYCTRDYYAMEYWGQGTSVTVSS VL: DIVMTQSPLSLPVTPGEPASISCRSSQTIVHSNGKTYLEWYLQKPGQSPQLLIYKVSNRFSGVPDRFSGSGSGTEFTLKISRVEAEDVGVYYCFQASHVPYTFGQGTKLEIKR | 337 | 0.204 | 0.732 | 2.17e+06 | 4530 | 0.143 | 0.655 | 145000 |  |
